A protein production outcome set (Wang et al. 2014)

Experiment: label from the status in PepcDB records

Row | Sequence | protein production
1 | NRLLSKYDPQKEAELRTWIEGLTGLSIGPDFQKGLKDGTILCTLMNKLQPGSVPKINRSMQNWHQLENLSNFIKAMVSYGMNPVDLFEANDLFESGNMTQVQVSLLALAGKAKTKGLQSGVDIGVKYSEKQER | not failed
2 | NSTWSGESKTLVLSNLSYSATEETLQEVFEKATFIKVPQNQNGKSKGYAFIEFASFEDAKEALNSCNKREIEGRAIRLELQGPRGSPN | not failed
3 | NTDYYGLDYALSFNQVEIEEKRIVIAGSGGIARTVIRYMLDHGAHRVDVLTRNAQNARRNLDIPGIGLHENIDEDYDIYVNCTPLGTLGDGDPFSTVDFRSGRTGIDLVYNPPDTPFLKRMRNAGGRTVSGLDVFIGQGLRTLELVFGIRPDSIFREYAVEALNEIR | failed
4 | NTITVSELLELIKKEDVIIVDTRSPREFKEETLPGAINIPLFLDDEHALIGKTYKQESREKAIEIATDIVEKSLKRILNEAKKLDRDKLIVVFCARGGMRSQTMALILQLLGFKVKRLIGGFKAFKHA | not failed
5 | NVAYPLGEGLLSFAESLESQKIHFTTEVITSRIEPANRYVAEKLRITPGQDILYLERLRSIGDEKAMLIENRINIELCPGIVEIDFNQHNLFPTIESLSKRKIRYSESRYAARLIGNERGHFLDISEDAPVLHLEQLVFFSRELPVEFGNVWLKGNKYYLGTVLQRRELS | not failed
6 | NVVLRILAWLLAVGLVVLPVVAVLNGWVGAERWPLAKLRVSGDFKRVSAEELRAVVLPYVRSGFFAVRLPQVQDAVERLPWVERAHVSKRWPDVLEVSVVEHQPFARWGSDRMLSEQGRLFPVPGGLKNLKLPQLGGPDMKVRDVVALYKASSALFASTGLDVSWLQMDARGSWSLGLSNGLQIFVGRDDARARLERFARVLPQLLDPQRPVVRADLRYTN | failed
7 | NVYDLANELERAVRALPEYQAVLTAKSAIESDADAQVLWQDFLATQSKVQEMMQSGQMPSQEEQDEMSKLGEKIESNDLLKVYFDQQQRLSVYMSDIEKIVFAPMQDL | not failed
8 | PASGVRPAEAADLAAVAAYDSACSPADRPRFLEHWLAGPGHRTFVRLVDGRLTGYGVVRPALDSLRVGPLFADSAEDARALFTALTADAGEIAMDIPETNTAAVALAREAGLTPSFETARMYTGPVRPFAADRVYGITSLELG | failed
9 | PDHKMSDVDTRHVAGLMRINHTGEVCAQALYQGQALTAKLPKVRKAMEHAAEEEIDHLVWCEQRIHQLGSHTSVLNPLFYGLSFGIGAVAGVISDRVSLGFVAATEDQVCKHLGEHLEQLPIEDGKSRAILEQMLSDEEHHAE | failed
10 | PDMDPRCPARADPRKLHDAIARFGVNHLFGSPALLRVLAEYGKPLPTLRCVTSAGAPVPPYVVAQIRALLSDEAQFLTPYGATECLPIAVIESRE | failed
11 | PDVDGMITLKVDNLTYRTSPDSLRRVFEKYGRVGDVYIPREPHTKAPRGFAFVRFHDRRDAQDAEAAMDGAELDGRELRVQVARYGRRDL | not failed
12 | PELKCPVIGCDGQGHISGKYTSHRTASGCPLAAKRQKENPLNGASLSWKLNKQELPHCPLPGCNGLGHVNNVFVTHRSLSGCPLNAQVIKKGKVS | not failed
13 | PELPTCLTRRLADYATEKPLVRLFFQGEEATVPFISQTSRELNMDINILLANIDRFDGVTCGVLVVELTANPLLLEAFINRCEQAGITVEVLGYVLPDGL | not failed
14 | PETYGRLVEPTTLKIERLLPGPIERVWAYLTQSDLRRRWLASGEMRLAPDAPFELVWRNDELSDPPGHRPEGFSEEEKMASRIITVVPPHHLVFSWGESGEVSIELQALGKDVLLTLIHRRLVGRKTKLDVSAGWHVHLDILAARLQEKEPAPFWDTWLALKEEYEPR | failed
15 | PEVGSSEHKLKIRNIKLSDYDDIFEIMESVYADIGGPWTKKELRSHLNHFPEGQICIEDNGKVIAAAFSLIVNYSNYGDKHTYQQITGDGLLTNHDPEGDTLYGIDIFVHPEFRGLRLGRRLYDARKELCEKLNLRAIIVGGRIPGYKNFAKKLTPRQYIEEVKKKEIFDPVLTFQLANDFHLRKIIQGYLPDDRDSKAYAALLEWKNALYEIEE | failed
16 | PGAAPGLFALESAIDEMALASGMDPLAFRKLNLSDKDQSVGLPWSSNHLPEAIDKAAERFGWQARKAAVGSMREGDEIIGYGMGACNWEAHQVPTDARVVLRSDGTALAQCGLQDIGTGTYTIVAQTVSELTGIPIERVEVELGSSSFPPGPVSGGSWVTASVMPAIAGATREALQKLRQYAISKDAVFAGQDPESIKVENGQLVMGEQRASFVDVLKGQRLSRAEGNFQSGMPEAGKYSFRSFGVHFVEVRWDPGISSLRVSRVVSAIDVGKVINPLAARNQVEGAIVMGIGMALFEAGEYDPRSGMPVNNNYAEYVVPVHADQPDIDVMLLDYPDYNLGEFGARGIGEIGVTGLAAAVANAVYHATGKRVRSLPITKEKLMAGL | failed
17 | PGAPSTVRISKNVDGIHLSWEPPTSPSGNILEYSAYLAIRTAQMQDNPSQLVFMRIYCGLKTSCTVTAGQLANAHIDYTSRPAIVFRISAKNEKGYGPATQIRWLQGNSK | not failed
18 | PGFIDMHAHSELRLFENPGAREKLTQGITTEVLGQDGVSVAPVPPNLTDEWAERVKSLDGTLGETWPWHTVSGYLEALESVEPAVNCAYYAPHGNIRSMLAGFEDRPLSGEHVVAAGPVTGQRLDRPKSDHDTAPGELDAIRQELEVALEEGAFGMSKGMIYPPSSYARDDELVALADTLAKRDSFMISHVWNETDRVVESIDRYLDICRRGGCHAHVSHLKVGGQQNWGDSEAVLDLFDDAVDRGQRVTFDQYPYTAGSTMLTALLPPWARQGDSEAIRHRLNSAAVRDRIAADISQPGDWENLAYAAGSWDNILITRTGSGRYQGDTIADIAAEMDREPVDAMCELLVAEELDVTMADFVMAETDIERFLADDRGTFCTDGIFGGKPHPRAIGAFSRILERYVRERNVLSPELLAYKAAGNPADILG | failed

Row | Sequence | protein production
19 | PGLRELCIQKAPGERLGISIRGGARGHAGNPRDPTDEGIFISKVSPTGAAGRDGRLRVGLRLLEVNQQSLLGLTHGEAVQLLRSVGDTLTVLVCDGFE | not failed
20 | PGLVDVHTHFMPERVLRKVWDYFDGLGPLTGGLEWPITYRSDEDQRLATIREFGVRAFTAMLYPHKAGMARWLNSWAVDFARRTPDCLHTATLFPEPGVEAYVLEAVEQGARVFKAHVQVGAYDPADELLDPVWGLLAEAGVPVVMHCGSGPAPGKHTGPGPVAQVLARHPRLRLVVAHLGMPEYEDFLDLAERYGEVRLDTTMAFTDFSERLAPFPRGARPRLAGLGDRILLGTDFPNIPYRYVDQLYALERLGLGDDWLRSVCHGNGARLFGL | failed
21 | PGYTLTRELPLTEYRALYRAAEDTWAARLDWSPEQYDAHFAREDVRLLALRDSEGRPVAFAELELCAPDSRAELTHLAVHPAQRGQGLGRALLALAAAEAAQSPEIRTLRARAHDHMSAARQLYARAGLSHCRAVVTSLREG | failed
22 | PHSMEPQVTLNVTFKNEIQSFLVSDPENTTWADIEAMVKVSFDLNTIQIKYLDEENEEVSINSQGEYEEALKMAVKQGNQLQMQVHEG | not failed
23 | PKRTAATAGALMIGVAVVSLFTVFGASLKATMDQTVSRSFAGDVAVSAPSFGAGGSGLSPRLAGAIQELPEVDTAVGLGRGVAEVDGQGRALTVTDPAALNRTFDLGAVHGSLDDLGTDGIAITENEADERGLTTGDTTRLTFTDGHSGTFTVRAVYGQSELAGDYVITRAAWAPHRTQDSDTLVAVAFEDGVGADAGKAAVEKVADRYGNPEVQTREEYAESSAGGIDMMLTLVYALLALAVLIALLGISNTLTLAVHERTRELGLLRAVGQTRAQLRAMVRWESVLVAAFGTVGGLGLGAFLGWVLVAASDGASDSAFAFAVPPAQLAVVALVGLAAGALAGVRPARRASRLDVLRAVAT | failed
24 | PLLIFPPWINKFYIMDLRPENSMIRWLTAQGFTVFVASWVNPDQTLAAKTFEDYMVEGIYDAAQQVMTQCGVDRVNTVGYCIGGTLLSVALAHMAARGDKRINSATFFAAQQDFAEAGDLLLFTNEEWLQSIEQQMDQAGGFLPSQSMADTFNALRGNDLIWSFFVSNYLMGKEPRPFDLLFWNADQTRMPKALHLFYLRNFYKDNALTTGKLSLGGERLDLSKVKIPIYVQSSKDDHIAPYRSVYRGARAFGGPVTFTMAGSGHI | failed
25 | PMNGKEKAASYDKVVDVDVKLGQVSVKNPKGTAHEMPKTFTFDAVYDWNAKQFELYDETFRPLVDSVLQGFNGTIFAYGQTGTGKTYTMEGIRGDPEKRGVIPNSFDHIFTHISRSQNQQYLVRASYLEIYQEEIRDLLSKDQTKRLELKERPDTGVYVKDLSSFVTKSVKEIEHVMNVGNQNRSVGATNMNEHSSRSHAIFVITIECSEVGLDGENHIRVGKLNLVDLAGSERQAKTGAQGERLKEATKINLSLSALGNVISALVDGKSTHIPYRDSKLTRLLQDSLGGNAKTVMVANVGPASYNVEETLTTLRYANRAKNIKNKPRVNEDPKDAL | failed
26 | PNVVKMNKPFISLCPEITRAHALTLMDWLEDEHVTRHLSDSRHVSRFIEQVIDRVQLPVLTHLFNQGGRFFMAYDRHDVPVGFVRLVKTGSDCEIVLVIGNRDNWGRKLGASAIREGMKLAFFEMRAARLIAKVHPDNERSLNAFLRCGFVLE | not failed
27 | PPHYDYAIGIRGDSMLPKYEQGDMLYIVDKGMSTYSGQLCIVVHNGNTYFKKVYTEHDGLRLVSLNKKYSDIFIGYPPAEDTYIKIYDVVGSFTPIEF | failed
28 | PPSTLIGPGDDAALVRADDGRVAVSADMLVQDRHFRLDWSSPRDVGRKAVAQNAADVAAMGARPTAFLVSLGLPPDTSIDVADGISAAIGESAEELGAGVVGGDLVQAGQVVISVTVLGDLGGRS | failed
29 | PQAMIIDVVADVVCPWCYLGWRRLKSAIALRPDLKAQLIWRPYQLDPTLPEDGVDRKAYMAQKFKDPEKLKAVHTALVEGGAEEGIVFNFEAIALSPNTNAAHRLIRWALTAGVQDHVVEALFKAYFEQGLDIGDPIVLGDIAEAAGMERLVVLQLLSEGADKEAVAREHAMAVQGGVTGVPFAIFAGKVAVVGAESPERIAQAIDQALAA | failed
30 | PREPVVNDEMCDVCEVWTAESLFPCRVCTRVFHDGCLRRMGYIQGDSAAEVTEMAHTETGWSCHYCDNINLLLTEE | not failed
31 | PRKASRKPPREESSATCVLEQPGALGAQILLVQRPNSGLLAGLWEFPSVTWEPSEQLQRKALLQELQRWAGPLPATHLRHLGEVVHTFSHIKLTYQVYGLALEGQTPVTTVPPGARWLTQEEFHTAAVSTAMKKVFRVYQGQ | not failed
32 | PRMIVFGAIDFASALARAGKFLGHHVTVCDARPVFATPARFPDADEVVVEWPHEYLARTAVDARTVLCVLTHDAKFDIPLLRLALRLPVAYVGAMGSRRTHLDRAARLREAGV | failed
33 | PSLPGIEAAARYLPATQGMEIGGDFYDLVATVGRAAAVIGDVQGHNVTAAGLMGQIRTAVRAYTTVGQAPGQVMRSTNRLMIDLGTDLFASCVYLRLDPARQRVVMARAGHPPPLLRKPDGQVRVLDLAGGPLLGIDADATYTTTEFALAPGSVLALYTDGLIESPGIDIEDALAELGERLAESGDEPLDELADRLVRHTATAEERLDDIALLLLRARA | failed
34 | PSMPASPVLTKAGITWLSLQWSKPSGTPSDEGISYILEMEEETSGYGFKPKYDGEDLAYTVKNLRRSTKYKFKVIAYNSEGKSNPSEVVEFTTCPD | not failed
35 | PTRQVLQGSRCRLEPLTLAHASDLFAAHQLAPDARSWTWLLREPESNLAEFSAWVEQVATLADPIHFAVVDQQRGKAVGSLALMRIDIAHGVVEVGHVHFSPLLSRTAMATEAHWLLMQYVFDTLGYRRYEWKCNSLNIPSARAARRLGFQYEGRFRQALVSKGHNRDTDWFSVIDGEWPELD | failed
